Target: the molecule itself
Assay: SEC-MALS

| Protein | stoichiometry N |
| --- | --- |
| TEX12core (human TEX12, amino acids 49-123) (domain or fragment, UniProt Q9BXU0 49-123, looked up) KDEALEKDLNDVSKEINLMLSTYAKLLSERAAVDASYIDEIDELFKEANAIENFLIQKREFLRQRFTVIANTLHR | 2 |
| TEX12 (human, amino acids 1-123, full length) (natural protein, UniProt Q9BXU0 1-123, looked up) MMANHLVKPDNRNCKRPRELESPVPDSPQLSSLGKSDSSFSEISGLFYKDEALEKDLNDVSKEINLMLSTYAKLLSERAAVDASYIDEIDELFKEANAIENFLIQKREFLRQRFTVIANTLHR | 2 |

Reference: paper doi:10.1101/509869 (bioRxiv, 2019)
